# Experimental data as given in the PETadex activity labels (doi:10.1021/acscatal.9b00568).
# Positions count from the first letter of the chain named.
# B1: unnamed (protein)
# chain: MNFPRASRLMQAAVLGGLMAVSAAATAQTNPYARGPNPTAASLEASAGPFTVRSFTVSRPSGYGAGTVYYPTNAGGTVGAIAIVPGYTARQSSIKWWGPRLASHGFVVITIDTNSTLDQPESRSSQQMAALRQVASLNGTSSSPIYGKVDTARMGVMGWSMGGGGSLISAANNPSLKAAAPQAPWHSSTNFSSVTVPTLIFACENDSIAPVNSSALPIYDSMSRNAKQFLEINGGSHSCANSGNSNQALIGKKGVAWMKRFMDNDTRYSTFACENPNSTAVSDFRTANCS
# B2: unnamed (protein)
# chain: B1 chain with E121S, H186F, A280R
# B3: unnamed (protein)
# chain: B1 chain with E121D, A280R
# B4: unnamed (protein)
# chain: B1 chain with E121S, H186D, A280R
# B5: unnamed (protein)
# chain: B1 chain with E121S, H186L, A280R
# Substrate: PET
# Test: Proxy for plastic degradation [HPLC-UV]
# Conditions: pH 9; 30 °C; 0 h; part of the chain shown
row,Protein,Proxy for plastic degradation [µM]
1,B1,0
2,B4,0

# Same assay, conditions: pH 9; 30 °C; 1 h; part of the chain shown
row,Protein,Proxy for plastic degradation [µM]
1,B1,25
2,B4,5

# Same assay, conditions: pH 9; 30 °C; 2 h; part of the chain shown
row,Protein,Proxy for plastic degradation [µM]
1,B1,42
2,B4,7

# Same assay, conditions: pH 9; 30 °C; 3 h; part of the chain shown
row,Protein,Proxy for plastic degradation [µM]
1,B1,50
2,B4,10

# Same assay, conditions: pH 9; 30 °C; 4 h; part of the chain shown
row,Protein,Proxy for plastic degradation [µM]
1,B1,55
2,B4,11

# Same assay, conditions: pH 9; 30 °C; 5 h; part of the chain shown
row,Protein,Proxy for plastic degradation [µM]
1,B1,68
2,B4,11

# Same assay, conditions: pH 9; 30 °C; 6 h; part of the chain shown
row,Protein,Proxy for plastic degradation [µM]
1,B1,70
2,B4,12

# Same assay, conditions: pH 9; 30 °C; 7 h; part of the chain shown
row,Protein,Proxy for plastic degradation [µM]
1,B1,80
2,B4,14

# Same assay, conditions: pH 9; 30 °C; 8 h; part of the chain shown
row,Protein,Proxy for plastic degradation [µM]
1,B1,75
2,B4,15

# Same assay, conditions: pH 9; 30 °C; 9 h; part of the chain shown
row,Protein,Proxy for plastic degradation [µM]
1,B1,90
2,B4,13

# Same assay, conditions: pH 9; 30 °C; 10 h; part of the chain shown
row,Protein,Proxy for plastic degradation [µM]
1,B1,92
2,B4,15

# Same assay, conditions: pH 9; 40 °C; 0 h; part of the chain shown
row,Protein,Proxy for plastic degradation [µM]
1,B1,0
2,B4,0

# Same assay, conditions: pH 9; 40 °C; 1 h; part of the chain shown
row,Protein,Proxy for plastic degradation [µM]
1,B1,70
2,B4,11

# Same assay, conditions: pH 9; 40 °C; 2 h; part of the chain shown
row,Protein,Proxy for plastic degradation [µM]
1,B1,82
2,B4,10

# Same assay, conditions: pH 9; 40 °C; 3 h; part of the chain shown
row,Protein,Proxy for plastic degradation [µM]
1,B1,105
2,B4,10

# Same assay, conditions: pH 9; 40 °C; 4 h; part of the chain shown
row,Protein,Proxy for plastic degradation [µM]
1,B1,100
2,B4,10

# Same assay, conditions: pH 9; 40 °C; 5 h; part of the chain shown
row,Protein,Proxy for plastic degradation [µM]
1,B1,102
2,B4,7

# Same assay, conditions: pH 9; 40 °C; 6 h; part of the chain shown
row,Protein,Proxy for plastic degradation [µM]
1,B1,104
2,B4,8

# Same assay, conditions: pH 9; 40 °C; 7 h; part of the chain shown
row,Protein,Proxy for plastic degradation [µM]
1,B1,100
2,B4,9

# Same assay, conditions: pH 9; 40 °C; 8 h; part of the chain shown
row,Protein,Proxy for plastic degradation [µM]
1,B1,104
2,B4,8

# Same assay, conditions: pH 9; 40 °C; 9 h; part of the chain shown
row,Protein,Proxy for plastic degradation [µM]
1,B1,115
2,B4,7

# Same assay, conditions: pH 9; 40 °C; 10 h; part of the chain shown
row,Protein,Proxy for plastic degradation [µM]
1,B1,108
2,B4,8

# Same assay, conditions: pH 9; 30 °C; 24 h
row,Protein,Proxy for plastic degradation [µM]
1,B2,6
2,B3,15.2
3,B5,2.1

# Same assay, conditions: pH 9; 30 °C; 72 h
row,Protein,Proxy for plastic degradation [µM]
1,B2,11.4
2,B3,23.2
3,B5,3.1

# Same assay, conditions: pH 9; 40 °C; 24 h
row,Protein,Proxy for plastic degradation [µM]
1,B2,7.5
2,B3,28.9
3,B5,2

# Same assay, conditions: pH 9; 40 °C; 72 h
row,Protein,Proxy for plastic degradation [µM]
1,B2,14.4
2,B3,38.4
3,B5,7.1
